From publication PMC9963953, “Structures of MPND Reveal the Molecular Recognition of Nucleosomes” come the findings set out here.

The series addresses T1, MPND 54-163 (RAMA domain, crystal) (Mus musculus, UniProt Q3TV65 54-163).
T1 sequence: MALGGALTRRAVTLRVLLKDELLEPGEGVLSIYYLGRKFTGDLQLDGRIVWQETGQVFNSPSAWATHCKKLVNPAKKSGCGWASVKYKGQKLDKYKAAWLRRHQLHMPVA
Briefly: X-ray crystallography (2.47 A); EMSA: 20 mM HEPES pH 7.2, 100 mM NaCl, 2 mM DTT, 0.1% NP-40, 20 uM protein, 5 uM DNA, on ice; MST: 20 mM HEPES pH 7.2, 100 mM NaCl, 0.1% NP-40, 22 C; pull-down: 20 mM HEPES pH 7.2, 0.15 M NaCl, 1 mM DTT, 4 C. The following applies: protein: recombinant; tags: tag removed with TEV; 18 bp, 5' overhangs 1 nt.

B1: crystallization dsDNA (dsDNA)
DNA 1: CAGCAACAGAAGAGGATCT
DNA 2: GAGATCCTCTTCTGTTGCT
With B1, the binding result is given as “binds”.
